# US20110262929A1 (FORERUNNER PHARMA RESEARCH, published 2011)
# T1: secreted HS6ST2 (sHS6ST2_FLAG) (human, UniProt Q96MM7 170-605)
# T1 construct: Purified from CHO supernatant on anti-FLAG gel; also called soluble HS6ST2
# T1 sequence: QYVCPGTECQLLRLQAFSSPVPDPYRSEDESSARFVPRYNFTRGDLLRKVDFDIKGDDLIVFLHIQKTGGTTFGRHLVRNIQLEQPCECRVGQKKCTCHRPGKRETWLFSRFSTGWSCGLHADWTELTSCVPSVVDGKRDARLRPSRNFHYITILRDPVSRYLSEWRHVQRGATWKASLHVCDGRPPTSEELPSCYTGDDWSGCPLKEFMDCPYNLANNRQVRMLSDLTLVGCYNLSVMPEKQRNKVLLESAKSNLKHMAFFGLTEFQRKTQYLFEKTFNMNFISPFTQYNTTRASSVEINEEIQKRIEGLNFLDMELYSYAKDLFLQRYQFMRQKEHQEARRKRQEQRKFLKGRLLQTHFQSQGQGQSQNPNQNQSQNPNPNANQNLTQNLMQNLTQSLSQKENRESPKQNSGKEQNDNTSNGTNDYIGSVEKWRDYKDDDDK
# T2: GST_HS6ST2_C1 (human, UniProt Q96MM7 454-539)
# T2 construct: Expressed in E. coli BL21 (DE3); whole cell lysate blotted after SDS-PAGE; also called GST fusion of amino acids 308-393 of HS6ST2_N-short; not shown: N-terminal glutathione S-transferase (GST) of vector pGEX-6P-1, with the vector's linker
# T2 sequence: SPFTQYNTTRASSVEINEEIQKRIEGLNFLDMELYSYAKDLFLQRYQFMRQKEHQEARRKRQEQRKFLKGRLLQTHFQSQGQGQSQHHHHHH
# T3: GST_HS6ST2_C2 (human, UniProt Q96MM7 525-605)
# T3 construct: Expressed in E. coli BL21 (DE3); whole cell lysate blotted after SDS-PAGE; also called GST fusion of amino acids 379-459 of HS6ST2_N-short; not shown: N-terminal glutathione S-transferase (GST) of vector pGEX-6P-1, with the vector's linker
# T3 sequence: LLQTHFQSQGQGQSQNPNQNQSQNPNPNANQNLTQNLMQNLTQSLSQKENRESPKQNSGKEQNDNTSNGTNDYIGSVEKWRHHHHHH
# Assays:
# [1] = biological target: T1, secreted HS6ST2 (sHS6ST2_FLAG); test: sandwich ELISA: A6 coated at 5 µg/mL as capture, B5-biotin and C8-biotin (3 µg/mL each, mixed) as detectors
# [2] = biological target: T2, GST_HS6ST2_C1; test: Western blot of E. coli whole cell lysate, antibody 10 µg/mL
# Experimental: (§1) GST_HS6ST2_N, GST_HS6ST2_mid, GST_HS6ST2_C, GST_HS6ST2_C1 and GST_HS6ST2_C2 were expressed in BL21 (DE3) Competent Cells (Takara Bio), and the whole cell lysates were resolved by SDS-PAGE electrophoresis and then transferred to PVDF membranes (Immobilon-P, Millipore) and Western blotted with the anti-HS6ST2 antibodies. The anti-HS6ST2 antibodies were used at 10 μg/mL, while the secondary antibody (HRP-anti mIgG, GE Healthcare) was used as a 3000-fold dilution, and blots were detected with ECL Western Blotting Detection Reagents (GE Healthcare). As a result, the anti-HS6ST2 antibodies A1, A10, B5, B6 and C8 bound to GST_HS6ST2_C2, A6 bound to GST_HS6ST2_C1, and C10 bound to GST_HS6ST2_N.
# [3] = biological target: T3, GST_HS6ST2_C2; test: as above
# Experimental: as §1
# [4] = biological target: T1, secreted HS6ST2 (sHS6ST2_FLAG); test: flow cytometry: sHS6ST2_FLAG (50 µg/mL) held on heparan sulfate of DG44 cells, detected with C8 as primary antibody
# Experimental: Each anti-HS6ST2 antibody or mouse IgG1 (mIgG1, BD Biosciences Pharmingen) as a negative control was added to a final concentration of 2 μg/mL into 96-well U-bottom plates (Becton Dickinson) containing 5×10⁴ cells suspended in PBS (FACS buffer) supplemented with 0.5% bovine serum albumin and 0.1% NaN₃. After reaction on ice for 1 hour, the cells were washed with FACS buffer. Then, an FITC-labeled anti-mouse antibody (Goat F(ab′)₂ Fragment Anti-mouse IgG (H+L)-FITC, Beckman Coulter) was added as a secondary antibody, and the mixture was reacted on ice for 1 hour. The cells were washed with FACS buffer, and then suspended in FACS buffer containing 10 μg/mL propidium iodide (PI) (Sigma) and assayed by a flow cytometer (FACS Calibur, Becton Dickinson). The assay data were analyzed by CELLQuest software (Becton Dickinson), and the geo-mean of FITC fluorescent intensity was calculated for the PI-negative population of viable cells.
# Then, binding of soluble HS6ST2 (sHS6ST2_FLAG) to DG44 cells was evaluated. DG44 cells were enzymatically treated, and then reacted with sHS6ST2_FLAG prepared at 50 μg/mL in FACS buffer at 4° C. for 3 hours. After washing, the cells were analyzed by flow cytometry in the same manner as in Example 3. The anti-HS6ST2 antibody C8 was used as a primary antibody and mIgG1 (BD Biosciences Pharmingen) was used as a negative control. […]
Binder,binding result [1],binding result [2],binding result [3],binding result [4]
"anti-HS6ST2 antibody A6 (antibody, mouse IgG1, V domains shown, also called clone A6) VH: EVQLQQSGAELVRSGASVKLSCTASGFNIKDYYMHWVKQRPEQGLEWIGWIDPENDDTEYAPKFQGRATMTADTSSNTAYLQLSSLTSEDTAVYYCNAGYYGSGFAYWGQGTLVTVSA VL: DIVMTQSPSSLTVTAGEKVTMRCKSSQSLLNSGNQKNYLTWYQQKPGQPPRLLIYWASIRESGVPDRFTGSGSGTDFTLTISSVQAEDLAVYYCQNDYSYPLTFGTGTKLELK",binds,binds,–,–
"anti-HS6ST2 antibody C8 (antibody, mouse IgG1, V domains shown, also called clone C8; C8-biotin) VH: EVQLQQSGAELVRSGASVKLSCTASGFNIKDYYMHWVKQRPEQGLEWIGWIDPDNDDTEYAPKFQGKATMTADTSSNTAYLQLSSLTSEDTAVYYCNAGNGNYWFAYWGQGTLVTVSA VL: DVVMTQTPLSLPVSLGDQASISCRSSQSLVHSNGNTYLHWNLQKPGQSPKLLIYKVSNRFSGVPDRFSGSGSGTDFTLKISRVEAEDLGVYFCSQTTLVPYTFGGGTKLEIK",–,–,binds,binds
